Experimental data taken from paper PMC4269863.

Experiments:
[1] = target: HIV-1 surface envelope glycoprotein gp120 (immobilised for SPR) (HIV-1 (strain not stated)) (UniProt P04578); experiment: SPR; gp120 and gp41 covalently immobilised by amine coupling on a CM4 chip (about 115 and 45 RU), HSA as control surface; CBAs injected as two-fold dilutions; Biacore T200, 25°C, HBS-P (10 mM HEPES, 150 mM NaCl, 0.05% surfactant P20, pH 7.4) with 10 mM CaCl2; 1:1 Langmuir model
[2] = target: HIV-1 transmembrane envelope glycoprotein gp41 (immobilised for SPR) (HIV-1 (strain not stated)) (UniProt P04578); experiment: as above
[3] = target: envelope glycoproteins gp120/gp41 of HIV-1 NL4.3 virus with gp41 N625Q/N637Q (HIV-1 NL4.3)
[4] = target: envelope glycoproteins gp120/gp41 of HIV-1 NL4.3 virus with gp41 N625Q/N637Q/N674Q (HIV-1 NL4.3)
[5] = target: envelope glycoproteins gp120/gp41 of HIV-1 NL4.3 virus with gp41 N611Q/N637Q/N674Q (HIV-1 NL4.3)
[6] = target: envelope glycoproteins gp120/gp41 of HIV-1 NL4.3 virus with gp41 N637Q/N674Q (HIV-1 NL4.3)
[7] = target: envelope glycoproteins gp120/gp41 of HIV-1 NL4.3 virus with gp41 N625Q/N674Q (HIV-1 NL4.3)
[8] = target: envelope glycoproteins gp120/gp41 of HIV-1 NL4.3 virus with gp41 N611Q/N637Q (HIV-1 NL4.3)
[9] = target: envelope glycoproteins gp120/gp41 of HIV-1 NL4.3 virus with gp41 N674D (HIV-1 NL4.3)
[10] = target: envelope glycoproteins gp120/gp41 of HIV-1 NL4.3 virus with gp41 N674Q (HIV-1 NL4.3)
[11] = target: envelope glycoproteins gp120/gp41 of HIV-1 NL4.3 virus with gp41 N611Q (HIV-1 NL4.3)
[12] = target: envelope glycoproteins gp120/gp41 of HIV-1 NL4.3 virus with gp41 N637Q (HIV-1 NL4.3)
[13] = target: envelope glycoproteins gp120/gp41 of HIV-1 NL4.3 virus with gp41 N625Q (HIV-1 NL4.3)
[14] = target: envelope glycoproteins gp120/gp41 of wild-type HIV-1 NL4.3 virus (HIV-1 NL4.3)
soluble CD4 = soluble CD4 (UniProt P01730); experiment: ELISA; 0.5 μg soluble CD4 coated on maxisorp strips; about 48 ng p24 of virus lysed with Triton-X100 added 1 h at 37°C; bound gp120 detected with sheep antibody D7324; normalised to WT∆Env virus, relative to WT (100%)

Sequence of actinohivin (Q9KWN0 47-160): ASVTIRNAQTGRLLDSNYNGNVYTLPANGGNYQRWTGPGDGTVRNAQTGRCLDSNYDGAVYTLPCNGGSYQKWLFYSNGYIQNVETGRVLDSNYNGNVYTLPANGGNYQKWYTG

“Hippeastrum hybrid agglutinin (natural protein)” gave a Kd [1] of 0.5 nM, a Kd [2] of 0.4 nM and an EC50 of inhibition of cell-free virus infection of C8166 cells (eGFP, flow cytometry, 72 h) [3] of 1.4 nM. The EC50 of inhibition of cell-free virus infection of C8166 cells (eGFP, flow cytometry, 72 h) [4] was 2.1 nM, the EC50 of inhibition of cell-free virus infection of C8166 cells (eGFP, flow cytometry, 72 h) [5] was 2.8 nM and the EC50 of inhibition of cell-free virus infection of C8166 cells (eGFP, flow cytometry, 72 h) [6] was 1.6 nM. It also gave an EC50 of inhibition of cell-free virus infection of C8166 cells (eGFP, flow cytometry, 72 h) [7] of 1.3 nM, an EC50 of inhibition of cell-free virus infection of C8166 cells (eGFP, flow cytometry, 72 h) [8] of 2.7 nM and an EC50 of inhibition of cell-free virus infection of C8166 cells (eGFP, flow cytometry, 72 h) [9] of 1.9 nM. The EC50 of inhibition of cell-free virus infection of C8166 cells (eGFP, flow cytometry, 72 h) [10] was 1.3 nM, the EC50 of inhibition of cell-free virus infection of C8166 cells (eGFP, flow cytometry, 72 h) [11] was 1.6 nM and the EC50 of inhibition of cell-free virus infection of C8166 cells (eGFP, flow cytometry, 72 h) [12] was 3.7 nM. The EC50 of inhibition of cell-free virus infection of C8166 cells (eGFP, flow cytometry, 72 h) [13] was 1.4 nM and the EC50 of inhibition of cell-free virus infection of C8166 cells (eGFP, flow cytometry, 72 h) [14] was 0.9 nM.
With “Urtica dioica agglutinin (natural protein)” the Kd [1] was 9 nM, the Kd [2] was 3.7 nM and the EC50 of inhibition of cell-free virus infection of C8166 cells (eGFP, flow cytometry, 72 h) [3] was 51 nM. It also gave an EC50 of inhibition of cell-free virus infection of C8166 cells (eGFP, flow cytometry, 72 h) [4] of 35 nM, an EC50 of inhibition of cell-free virus infection of C8166 cells (eGFP, flow cytometry, 72 h) [5] of 52 nM and an EC50 of inhibition of cell-free virus infection of C8166 cells (eGFP, flow cytometry, 72 h) [6] of 28 nM. For the same substance, the EC50 of inhibition of cell-free virus infection of C8166 cells (eGFP, flow cytometry, 72 h) [7] was 30 nM, the EC50 of inhibition of cell-free virus infection of C8166 cells (eGFP, flow cytometry, 72 h) [8] was 63 nM and the EC50 of inhibition of cell-free virus infection of C8166 cells (eGFP, flow cytometry, 72 h) [9] was 34 nM. For the same substance, the EC50 of inhibition of cell-free virus infection of C8166 cells (eGFP, flow cytometry, 72 h) [10] was 32 nM, the EC50 of inhibition of cell-free virus infection of C8166 cells (eGFP, flow cytometry, 72 h) [11] was 32 nM and the EC50 of inhibition of cell-free virus infection of C8166 cells (eGFP, flow cytometry, 72 h) [12] was 57 nM. For the same substance, the EC50 of inhibition of cell-free virus infection of C8166 cells (eGFP, flow cytometry, 72 h) [13] was 27 nM and the EC50 of inhibition of cell-free virus infection of C8166 cells (eGFP, flow cytometry, 72 h) [14] was 25 nM.
“actinohivin (from UniProt Q9KWN0 47-160) (natural protein)” was tested, and the Kd [1] was 14 nM, the Kd [2] was 2 nM and the EC50 of inhibition of cell-free virus infection of C8166 cells (eGFP, flow cytometry, 72 h) [3] was 3.8 nM. The EC50 of inhibition of cell-free virus infection of C8166 cells (eGFP, flow cytometry, 72 h) [4] was 3.2 nM, the EC50 of inhibition of cell-free virus infection of C8166 cells (eGFP, flow cytometry, 72 h) [5] was 3.6 nM and the EC50 of inhibition of cell-free virus infection of C8166 cells (eGFP, flow cytometry, 72 h) [6] was 4.3 nM. For the same substance, the EC50 of inhibition of cell-free virus infection of C8166 cells (eGFP, flow cytometry, 72 h) [7] was 3.2 nM, the EC50 of inhibition of cell-free virus infection of C8166 cells (eGFP, flow cytometry, 72 h) [8] was 3 nM and the EC50 of inhibition of cell-free virus infection of C8166 cells (eGFP, flow cytometry, 72 h) [9] was 2.1 nM. The EC50 of inhibition of cell-free virus infection of C8166 cells (eGFP, flow cytometry, 72 h) [10] was 8.3 nM, the EC50 of inhibition of cell-free virus infection of C8166 cells (eGFP, flow cytometry, 72 h) [11] was 5.4 nM and the EC50 of inhibition of cell-free virus infection of C8166 cells (eGFP, flow cytometry, 72 h) [12] was 15 nM. It also gave an EC50 of inhibition of cell-free virus infection of C8166 cells (eGFP, flow cytometry, 72 h) [13] of 8.1 nM and an EC50 of inhibition of cell-free virus infection of C8166 cells (eGFP, flow cytometry, 72 h) [14] of 5.2 nM.
With “envelope glycoproteins gp120/gp41 of HIV-1 NL4.3 virus with gp41 N625Q (complex)” the binding efficiency, percent of WT (soluble CD4) was 130 % of WT.
